In PMC3660561, “Crystal Structure of DmdD, a Crotonase Superfamily Enzyme That Catalyzes the Hydration and Hydrolysis of Methylthioacryloyl-CoA” (PLoS ONE, 2013):
Residue numbers refer to the chain shown, from its start. Names may count otherwise.

B1: Ruegeria pomeroyi DmdD, wild type (enzyme)
chain: MTQDVTSGYSNLDLDLRDNGVCVVTLNRPDKRNALDVATIEELVTFFSTAHRKGVRAVVLTGAGDHFCAGLDLVEHWKADRSADDFMHVCLRWHEAFNKMEYGGVPIIAALRGAVVGGGLELASAAHLRVMDQSTYFALPEGQRGIFTGGGATIRVSDMIGKYRMIDMILTGRVYQGQEAADLGLAQYITEGSSFDKAMELADKIASNLPLTNFAICSAISHMQNMSGLDAAYAEAFVGGIVNTQPAARERLEAFANKTAARVRPNS
notes: DmdD (methylthioacryloyl-CoA hydratase) of Ruegeria pomeroyi, sub-cloned into pET26b; Hexamer (dimer of trimers); The C-terminal His-tag was not cleaved before crystallization; also called wild-type DmdD; free enzyme; not shown: His6, C-terminal, kept
B2: Ruegeria pomeroyi DmdD E121A mutant (enzyme)
chain: B1 chain with E121A
notes: DmdD (methylthioacryloyl-CoA hydratase) of Ruegeria pomeroyi with the E121A mutation (QuikChange); crystals soaked with MTA-CoA or MMPA-CoA; PDB 4IZB is the wild-type parent; source: E. coli, purified following the same protocol as for the wild-type protein; not shown: His6, C-terminal, kept
B3: DmdD (Ruegeria pomeroyi DSS-3; E141A) (protein)
chain: B1 chain with E141A
notes: pET26b, C-terminal hexahistidine tag (not cleaved before crystallization), expressed in E. coli BL21(DE3) Star; homohexamer (dimer of trimers)

Tests used:
[1] = biological target: the molecule itself; assay: crystal structure; wild-type DmdD free enzyme, 1.5 Å; space group P2(1)3, two monomers in the asymmetric unit, hexamer generated by the crystallographic 3-fold axis; crystals from 100 mM Tris pH 8.5, 25% PEG 3350, 200 mM NaCl, 20°C
purified protein [2] = substrate: CSCCC(=O)SCCNC(=O)CCNC(=O)[C@H](O)C(C)(C)COP(=O)(O)OP(=O)(O)OC[C@H]1O[C@@H](n2cnc3c(N)ncnc32)[C@H](O)[C@@H]1OP(=O)(O)O; assay: purified protein; format: biochemical, Ruegeria pomeroyi; settings: CoA ester hydrolysis, 100 mM HEPES pH 7.4
purified protein [3] = substrate: CC(O)CC(=O)SCCNC(=O)CCNC(=O)[C@H](O)C(C)(C)COP(=O)(O)OP(=O)(O)OC[C@H]1O[C@@H](n2cnc3c(N)ncnc32)[C@H](O)[C@@H]1OP(=O)(O)O; assay: purified protein; format: biochemical, Ruegeria pomeroyi; settings: CoA ester hydrolysis, 100 mM HEPES pH 7.4
purified protein [4] = substrate: C/C=C/C(=O)SCCNC(=O)CCNC(=O)[C@H](O)C(C)(C)COP(=O)(O)OP(=O)(O)OC[C@H]1O[C@@H](n2cnc3c(N)ncnc32)[C@H](O)[C@@H]1OP(=O)(O)O; assay: purified protein; format: biochemical, Ruegeria pomeroyi; settings: hydration, 100 mM HEPES pH 7.4
[5] = substrate: CS/C=C/C(=O)SCCNC(=O)CCNC(=O)[C@H](O)C(C)(C)COP(=O)(O)OP(=O)(O)OC[C@H]1O[C@@H](n2cnc3c(N)ncnc32)[C@H](O)[C@@H]1OP(=O)(O)O; assay: MeSH release by headspace gas chromatography; format: biochemical, Ruegeria pomeroyi; settings: MeSH release (equivalent to hydration), 100 mM HEPES pH 7.4
Excerpt: MeSH release by headspace gas chromatography on DmdD

[6] = biological target: the molecule itself; assay: crystal structure; E121A mutant crystals soaked 48 h with 10 mM MTA-CoA or MMPA-CoA, 1.8 Å; space group P2(1)3, two monomers in the asymmetric unit

Row | Protein | stoichiometry N [1] | Km (purified protein [2]) [µM] | kcat (purified protein [2]) [s⁻¹] | Km (purified protein [3]) [µM] | kcat (purified protein [3]) [s⁻¹] | Km (purified protein [4]) [µM] | kcat (purified protein [4]) [s⁻¹] | Km [5] [µM] | kcat [5] [s⁻¹] | stoichiometry N [6]
1 | B1 | 6 | 69.0 ± 16.4 | 0.9 ± 0.1 | 119 ± 20 | 13.2 ± 1.6 | 19.0 ± 3.1 | 42 ± 3 | 9.4 ± 2.1 | 47 ± 3 | –
2 | B2 | – | – | – | – | – | – | – | – | – | 6
3 | B3 | – | – | – | – | – | – | – | 63.3 ± 12.0 | 0.0036 ± 0.0004 | –
